We go through one substance from patent publication US20100278865A1.

The target in this assay is E2 protein of J6/JFH-1 (3×FLAG) virus particles (hepatitis C virus, J6CF strain (genotype 2a)). The experiment in a line: batch capture of virus particles on M2 antibody agarose, FLAG peptide elution, HCV Core ELISA of eluates. (In general: In an ELISA, binding on a coated surface is turned into a signal by an enzyme label.)

“anti-FLAG monoclonal antibody (M2 antibody, Sigma)” returned a purification efficiency of 5%.
